Paper doi:10.1101/2025.11.18.686377

Target: NGF^painless (NGF variant bearing R100E+P61S mutations) (human)
Experiment: native MS

stoichiometry N: 2
Substance: NGF^painless (NGF variant bearing R100E+P61S mutations) (ligand)
